For this test, the target named is S100A9 (human) (UniProt P06702). Kind of test: cell-based or functional assay.
S100A9 (human), sequence (P06702 whole entry): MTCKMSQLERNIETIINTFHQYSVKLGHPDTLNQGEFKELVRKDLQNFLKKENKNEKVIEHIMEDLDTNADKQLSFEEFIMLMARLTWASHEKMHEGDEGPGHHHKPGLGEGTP

As to “S100A9 high-affinity chimeric (CD33-IgG1) decoy receptor (from UniProt P20138 18-259) (Fc fusion)”, the colony-forming capacity of MDS BM-MNC (fold greater than controls) was below 6.6.

Source of the values: patent publication US20180292411A1.
